The results in this text go back to patent US20260015426A1 (23ANDME, published 2026).

Assay [1] deals with T1, hu-M-IL1RAP construct, positions S21-T367 (extracellular domain of the membrane form of human IL1RAP) (human, UniProt Q9NPH3 21-367).
T1 construct: Biotinylated when captured on the Biacore chip
T1 sequence: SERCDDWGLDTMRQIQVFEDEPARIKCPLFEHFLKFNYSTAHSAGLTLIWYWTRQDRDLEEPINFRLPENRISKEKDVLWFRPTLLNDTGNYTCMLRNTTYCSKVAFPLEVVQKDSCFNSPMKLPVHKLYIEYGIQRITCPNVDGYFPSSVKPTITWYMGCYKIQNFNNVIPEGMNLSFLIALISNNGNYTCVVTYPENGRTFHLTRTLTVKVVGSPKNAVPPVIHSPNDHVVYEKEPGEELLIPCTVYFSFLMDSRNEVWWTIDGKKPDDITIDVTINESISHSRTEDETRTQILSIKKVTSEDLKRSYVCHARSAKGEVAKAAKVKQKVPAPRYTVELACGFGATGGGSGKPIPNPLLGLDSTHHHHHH
In words: SPR, Fab analyte, 25 C. (In general: In SPR one partner is held on a chip, and binding of the other changes the refractive index at the surface.)

For assay [2], the target named is T1, hu-M-IL1RAP construct, positions …. Put plainly: SPR, Fab against parent Fab.
Assay [3] has the same target. Put plainly: phage display selection of affinity maturation libraries + NGS; enrichment of the mutation R96A (VH).
Description: (§1) For the first panning round, plates and phage libraries were blocked in PBS buffer containing 0.05% TWEEN® 20 and 1% BSA for either 1 hour (plates) or 30 minutes (phage libraries). Plates were washed in Wash Buffer (PBS buffer containing 0.05% TWEEN® 20) and incubated with blocked phage libraries for 2 hours with shaking. Non-specifically bound phage was removed by washing vigorously with Wash Buffer. […] Non-specific interactions were inhibited by adding 1/10th v/v 1% BSA.
(§2) For panning rounds three through five, phage libraries were incubated with blocking buffer (PBS buffer with 1% BSA in round 3 and SUPERBLOCK™ PBS buffer (Pierce) and 0.05% TWEEN® 20 in rounds 4 and 5) for 30 minutes and then incubated with decreasing concentrations of biotinylated hu-M-IL1RAP for 1 hour. Hu-M-IL1RAP-bound phage were captured on blocked neutravidin-coated plates, washed extensively with Wash Buffer, and eluted and neutralized in the same manner as in rounds 1 and 2. In the final selection round, 1000× non-biotinylated hu-M-IL1RAP was added as a competitor to increase the selection stringency.
(§3) To extract sequences from affinity maturation libraries using NGS, phagemid double stranded DNA was isolated from E. coli XL-1 cells carrying phagemids from the initial phage library (unsorted libraries) and from the second and third rounds of solution selection (sorted libraries). […]
Assay [4] has the same target. In words: phage display selection of affinity maturation libraries + NGS; enrichment of the mutation A51D (VL).
Assay [5] shares this target. Put plainly: phage display selection of affinity maturation libraries + NGS; enrichment of the mutation W92I (VL).
Description: as §1, §2, §3
For assay [6] the target is unchanged. Put plainly: SPR, Fab analyte, 37 C.
Description: Surface plasmon resonance (SPR) analysis was used to determine binding affinity for hu-M-IL1RAP of the purified Fabs containing the selected single, double, and triple mutations in either the VL or VH regions using a BIACORE™ 8K instrument. […] For kinetics measurements, 5 nM biotinylated hu-M-IL1RAP was captured at 10 μL/min to achieve ˜50 response units in the second flow cell (FC2). FC1 was kept as a reference. […] The sensorgrams were recorded and subjected to reference and buffer subtraction before data analysis with the BIACORE® 8K Evaluation Software (version 1.1.1.7442). Association rates (kₒₙ) and dissociation rates (koff) were calculated using a simple one-to-one Langmuir binding model. The equilibrium dissociation constant (KD) was calculated as the ratio of koff/kₒₙ.
The target of assay [7] is T2, human IL1RAP (hu-IL1RAP) on human cells (human, UniProt Q9NPH3 21-570).
T2 sequence: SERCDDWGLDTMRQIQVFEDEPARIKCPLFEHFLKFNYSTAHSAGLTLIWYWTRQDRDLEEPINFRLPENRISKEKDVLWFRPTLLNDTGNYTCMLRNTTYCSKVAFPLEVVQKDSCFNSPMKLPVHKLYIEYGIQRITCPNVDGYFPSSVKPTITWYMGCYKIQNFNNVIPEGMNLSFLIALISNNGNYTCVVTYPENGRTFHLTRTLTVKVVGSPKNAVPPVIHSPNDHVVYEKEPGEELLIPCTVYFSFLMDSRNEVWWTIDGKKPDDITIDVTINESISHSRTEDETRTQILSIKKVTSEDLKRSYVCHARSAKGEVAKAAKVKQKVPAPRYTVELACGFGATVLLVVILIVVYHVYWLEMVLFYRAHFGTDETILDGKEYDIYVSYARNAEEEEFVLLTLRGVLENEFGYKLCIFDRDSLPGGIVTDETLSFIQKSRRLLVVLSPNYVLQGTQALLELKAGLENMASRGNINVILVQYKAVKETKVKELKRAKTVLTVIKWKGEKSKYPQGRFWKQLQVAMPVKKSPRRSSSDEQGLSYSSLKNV
Put plainly: cell-based or functional assay.

Assay [8] concerns the target T1, hu-M-IL1RAP construct, positions …. In words: phage display selection of affinity maturation libraries + NGS; enrichment of the mutation A51Y (VL).
Description: as §1, §2, §3
For assay [9] the target is unchanged. In words: phage display selection of affinity maturation libraries + NGS; enrichment of the mutation W92L (VL).
Assay [10] has the same target. Put plainly: phage display selection of affinity maturation libraries + NGS; enrichment of the mutation A51R (VL).
For assay [11] the target is unchanged. In words: phage display selection of affinity maturation libraries + NGS; enrichment of the mutation A51L (VL).
Description: as §1, §2, §3
For assay [12] the target is unchanged. Put plainly: phage display selection of affinity maturation libraries + NGS; enrichment of the mutation T94I (VL).
Description: as §1, §2, §3
For assay [13] the target is unchanged. In words: phage display selection of affinity maturation libraries + NGS; enrichment of the mutation T94V (VL).
Description: as §1, §2, §3

B1: H1 Fab (VH R96A) (Fab, V domains shown)
VH: EVQLVESGGGLVQPGGSLRLSCAASGFTFSNYAMSWVRQAPGKGLEWVATVTEGGDYNYYLDDVKGRFTISRDNAKNSLYLQMNSLRAEDTAVYYCARDAWPYFFDYWGQGTLVTVSS
VL: DIQMTQSPSSLSASVGDRVTITCRASENIYSNLAWYQQKPGKSPKLLVYGAKNLADGVPSRFSGSGSGTDYTLTISSLQPEDFATYYCQHFWTTPRTFGGGTKVEIK
notes: Fab with 8xHis tag
One may read the Kd as the concentration at which binding is half-saturated. Low values mean higher affinity, high ones lower affinity. By koff is commonly meant a measure of how fast the partners let go of each other. A lower koff goes with slow dissociation. One may read the kon as a measure of how fast the partners come together. In assay [1], B1 had a Kd of 0.125 nM, an off-rate (koff) of 0.000218 s⁻¹ and a kon of 1.75e+06 M⁻¹ s⁻¹. Also, the “Fold Improvement in KD @ 25° C.” value in assay [2] was found to be 2.7 fold. Also, in [3], the “Enrichment ratio (at the highest selection stringency)” value was determined as 4.55 ratio.

B2: K9 Fab (VL A51D) (Fab, V domains shown)
VH: EVQLVESGGGLVQPGGSLRLSCAASGFTFSNYAMSWVRQAPGKGLEWVATVTEGGDYNYYLDDVKGRFTISRDNAKNSLYLQMNSLRAEDTAVYYCARDRWPYFFDYWGQGTLVTVSS
VL: DIQMTQSPSSLSASVGDRVTITCRASENIYSNLAWYQQKPGKSPKLLVYGDKNLADGVPSRFSGSGSGTDYTLTISSLQPEDFATYYCQHFWTTPRTFGGGTKVEIK
notes: Fab with 8xHis tag
In [1], B2 showed a Kd of 0.021 nM, a koff of 0.000103 s⁻¹ and a kon of 4.93e+06 M⁻¹ s⁻¹. For the same molecule, the “Fold Improvement in KD @ 25° C.” value in assay [2] was determined as 16.1 fold. Also, the “Enrichment ratio (at the highest selection stringency)” value in [4] came out at 2.84 ratio.

B3: K12 Fab (VL W92I) (Fab, V domains shown)
VH: EVQLVESGGGLVQPGGSLRLSCAASGFTFSNYAMSWVRQAPGKGLEWVATVTEGGDYNYYLDDVKGRFTISRDNAKNSLYLQMNSLRAEDTAVYYCARDRWPYFFDYWGQGTLVTVSS
VL: DIQMTQSPSSLSASVGDRVTITCRASENIYSNLAWYQQKPGKSPKLLVYGAKNLADGVPSRFSGSGSGTDYTLTISSLQPEDFATYYCQHFITTPRTFGGGTKVEIK
notes: Fab with 8xHis tag
Regarding B3, in assay [1], binding was characterised by a dissociation constant (Kd) of 0.0411 nM, the koff is 0.00023 s⁻¹ and the kon came to 5.58e+06 M⁻¹ s⁻¹. Also, the “Fold Improvement in KD @ 25° C.” value in assay [2] turned out to be 8.2 fold. In assay [5], the “Enrichment ratio (at the highest selection stringency)” value was found to be 3.36 ratio.

B4: K10 Fab (VL A51Y) (Fab, V domains shown)
VH: EVQLVESGGGLVQPGGSLRLSCAASGFTFSNYAMSWVRQAPGKGLEWVATVTEGGDYNYYLDDVKGRFTISRDNAKNSLYLQMNSLRAEDTAVYYCARDRWPYFFDYWGQGTLVTVSS
VL: DIQMTQSPSSLSASVGDRVTITCRASENIYSNLAWYQQKPGKSPKLLVYGYKNLADGVPSRFSGSGSGTDYTLTISSLQPEDFATYYCQHFWTTPRTFGGGTKVEIK
notes: Fab with 8xHis tag
Turning to B4, in assay [1], the Kd was 0.00855 nM, the koff turned out to be 5.06e-05 s⁻¹ and the on-rate constant (kon) worked out at 5.92e+06 M⁻¹ s⁻¹. In addition, in assay [6], the Kd was determined as 0.0298 nM, the koff is 0.000153 s⁻¹ and the kon is 5.12e+06 M⁻¹ s⁻¹. For the same molecule, in assay [7], the “HEK-Blue, IL-1β, % inhibition at 100 nM (Fab)” value amounted to 100%; the “HEK-Blue, IL-1β, IC50 (Fab)” value is 0.66 nM; the “HEK-Blue, IL-33, % inhibition at 100 nM (Fab)” value was found to be 98%; the “HEK-Blue, IL-33, IC50 (Fab)” value turned out to be 3.26 nM. Moreover, in assay [7], the “HEK-Blue, IL-36α, % inhibition at 100 nM (Fab)” value was found to be 100% and the “HEK-Blue, IL-36α, IC50 (Fab)” value is 0.706 nM. In [2], the “Fold Improvement in KD @ 25° C.” value was 39.4 fold and the “Fold Improvement in KD @ 37° C.” value came to 8.99 fold. For the same molecule, in assay [8], the “Enrichment ratio (at the highest selection stringency)” value stood at 2.95 ratio.

B5: K4 Fab (VL W92L) (Fab, V domains shown)
VH: EVQLVESGGGLVQPGGSLRLSCAASGFTFSNYAMSWVRQAPGKGLEWVATVTEGGDYNYYLDDVKGRFTISRDNAKNSLYLQMNSLRAEDTAVYYCARDRWPYFFDYWGQGTLVTVSS
VL: DIQMTQSPSSLSASVGDRVTITCRASENIYSNLAWYQQKPGKSPKLLVYGAKNLADGVPSRFSGSGSGTDYTLTISSLQPEDFATYYCQHFLTTPRTFGGGTKVEIK
notes: Fab with 8xHis tag
In [1], B5 yielded a Kd of 0.147 nM, a koff of 0.000751 s⁻¹ and a kon of 5.12e+06 M⁻¹ s⁻¹. For the same molecule, the “Fold Improvement in KD @ 25° C.” value in assay [2] was 2.29 fold. Besides, the “Enrichment ratio (at the highest selection stringency)” value in [9] was 0.416 ratio.

B6: K7 Fab (VL A51R) (Fab, V domains shown)
VH: EVQLVESGGGLVQPGGSLRLSCAASGFTFSNYAMSWVRQAPGKGLEWVATVTEGGDYNYYLDDVKGRFTISRDNAKNSLYLQMNSLRAEDTAVYYCARDRWPYFFDYWGQGTLVTVSS
VL: DIQMTQSPSSLSASVGDRVTITCRASENIYSNLAWYQQKPGKSPKLLVYGRKNLADGVPSRFSGSGSGTDYTLTISSLQPEDFATYYCQHFWTTPRTFGGGTKVEIK
notes: Fab with 8xHis tag
On to B6, for which, in assay [1], the Kd was 0.0119 nM, the koff is 6.26e-05 s⁻¹ and the kon amounted to 5.25e+06 M⁻¹ s⁻¹. The “Fold Improvement in KD @ 25° C.” value in assay [2] was 28.3 fold. For the same molecule, the “Enrichment ratio (at the highest selection stringency)” value in assay [10] is 2.89 ratio.

B7: K8 Fab (VL A51L) (Fab, V domains shown)
VH: EVQLVESGGGLVQPGGSLRLSCAASGFTFSNYAMSWVRQAPGKGLEWVATVTEGGDYNYYLDDVKGRFTISRDNAKNSLYLQMNSLRAEDTAVYYCARDRWPYFFDYWGQGTLVTVSS
VL: DIQMTQSPSSLSASVGDRVTITCRASENIYSNLAWYQQKPGKSPKLLVYGLKNLADGVPSRFSGSGSGTDYTLTISSLQPEDFATYYCQHFWTTPRTFGGGTKVEIK
notes: Fab with 8xHis tag
Consider B7, for which, in [1], the Kd was determined as 0.0131 nM, the koff was determined as 6.76e-05 s⁻¹ and the kon came out at 5.15e+06 M⁻¹ s⁻¹. The “Fold Improvement in KD @ 25° C.” value in assay [2] amounted to 25.7 fold. Besides, in assay [11], the “Enrichment ratio (at the highest selection stringency)” value is 2.9 ratio.

B8: K14 Fab (VL T94I) (Fab, V domains shown)
VH: EVQLVESGGGLVQPGGSLRLSCAASGFTFSNYAMSWVRQAPGKGLEWVATVTEGGDYNYYLDDVKGRFTISRDNAKNSLYLQMNSLRAEDTAVYYCARDRWPYFFDYWGQGTLVTVSS
VL: DIQMTQSPSSLSASVGDRVTITCRASENIYSNLAWYQQKPGKSPKLLVYGAKNLADGVPSRFSGSGSGTDYTLTISSLQPEDFATYYCQHFWTIPRTFGGGTKVEIK
notes: Fab with 8xHis tag
In assay [1], B8 yielded a Kd of 0.0913 nM, a koff of 0.000543 s⁻¹ and a kon of 5.95e+06 M⁻¹ s⁻¹. The “Fold Improvement in KD @ 25° C.” value in [2] came to 3.69 fold. Besides, the “Enrichment ratio (at the highest selection stringency)” value in assay [12] was found to be 1.74 ratio.

B9: K15 Fab (VL T94V) (Fab, V domains shown)
VH: EVQLVESGGGLVQPGGSLRLSCAASGFTFSNYAMSWVRQAPGKGLEWVATVTEGGDYNYYLDDVKGRFTISRDNAKNSLYLQMNSLRAEDTAVYYCARDRWPYFFDYWGQGTLVTVSS
VL: DIQMTQSPSSLSASVGDRVTITCRASENIYSNLAWYQQKPGKSPKLLVYGAKNLADGVPSRFSGSGSGTDYTLTISSLQPEDFATYYCQHFWTVPRTFGGGTKVEIK
notes: Fab with 8xHis tag
In assay [1], B9 came in with a Kd of 0.12 nM, a koff of 0.00068 s⁻¹ and a kon of 5.67e+06 M⁻¹ s⁻¹. Moreover, in assay [2], the “Fold Improvement in KD @ 25° C.” value worked out at 2.81 fold. Moreover, the “Enrichment ratio (at the highest selection stringency)” value in [13] was 0.987 ratio.
